Test results taken from patent US20180155451A1 (published 2018).

B1: GpH7-B3 variant H268_18N/GpL16-k0 (antibody, human IgG1, kappa)
heavy: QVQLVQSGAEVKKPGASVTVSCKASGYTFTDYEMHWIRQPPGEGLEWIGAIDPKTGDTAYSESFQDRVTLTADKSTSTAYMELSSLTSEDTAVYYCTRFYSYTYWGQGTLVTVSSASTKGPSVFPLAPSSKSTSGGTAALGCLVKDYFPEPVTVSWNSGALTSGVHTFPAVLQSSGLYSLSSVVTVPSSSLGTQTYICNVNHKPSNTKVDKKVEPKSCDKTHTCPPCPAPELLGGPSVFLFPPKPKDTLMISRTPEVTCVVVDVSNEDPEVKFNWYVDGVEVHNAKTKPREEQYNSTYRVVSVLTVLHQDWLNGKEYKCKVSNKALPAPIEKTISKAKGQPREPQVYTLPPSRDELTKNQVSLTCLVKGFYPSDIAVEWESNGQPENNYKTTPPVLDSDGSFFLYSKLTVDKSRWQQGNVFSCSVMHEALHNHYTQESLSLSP
light: DIVMTQSPLSLPVTPGEPASISCQASESLVHSNRNTYLHWYLQKPGQSPQLLIYKVSNRFSGVPDRFSGSGSGTDFTLKISRVEAEDVGVYYCSQNTHVPPTFGQGTKVEIERTVAAPSVFIFPPSDEQLKSGTASVVCLLNNFYPREAKVQWKVDNALQSGNSQESVTEQDSKDSTYSLSSTLTLSKADYEKHKVYACEVTHQGLSSPVTKSFNRGEC
notes: also called Ho Ab H268_18N
B2: GpH7-B3 variant G236_15Y/GpL16-k0 (antibody, human IgG1, kappa)
heavy: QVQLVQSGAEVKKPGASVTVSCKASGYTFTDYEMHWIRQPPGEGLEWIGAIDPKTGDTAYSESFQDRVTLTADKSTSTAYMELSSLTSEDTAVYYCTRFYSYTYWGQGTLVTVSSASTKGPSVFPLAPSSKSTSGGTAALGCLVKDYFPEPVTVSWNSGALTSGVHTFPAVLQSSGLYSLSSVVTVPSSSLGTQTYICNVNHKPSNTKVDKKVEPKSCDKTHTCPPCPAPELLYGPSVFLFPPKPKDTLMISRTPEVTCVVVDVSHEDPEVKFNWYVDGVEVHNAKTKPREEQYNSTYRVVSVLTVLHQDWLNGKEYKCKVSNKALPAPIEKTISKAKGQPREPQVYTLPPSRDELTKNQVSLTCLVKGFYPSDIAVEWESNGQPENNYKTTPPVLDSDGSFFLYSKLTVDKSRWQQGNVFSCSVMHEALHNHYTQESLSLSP
light: DIVMTQSPLSLPVTPGEPASISCQASESLVHSNRNTYLHWYLQKPGQSPQLLIYKVSNRFSGVPDRFSGSGSGTDFTLKISRVEAEDVGVYYCSQNTHVPPTFGQGTKVEIERTVAAPSVFIFPPSDEQLKSGTASVVCLLNNFYPREAKVQWKVDNALQSGNSQESVTEQDSKDSTYSLSSTLTLSKADYEKHKVYACEVTHQGLSSPVTKSFNRGEC
notes: also called Ho Ab G236_15Y
B3: GpH7-B3 variant E333_04F/GpL16-k0 (antibody, human IgG1, kappa)
heavy: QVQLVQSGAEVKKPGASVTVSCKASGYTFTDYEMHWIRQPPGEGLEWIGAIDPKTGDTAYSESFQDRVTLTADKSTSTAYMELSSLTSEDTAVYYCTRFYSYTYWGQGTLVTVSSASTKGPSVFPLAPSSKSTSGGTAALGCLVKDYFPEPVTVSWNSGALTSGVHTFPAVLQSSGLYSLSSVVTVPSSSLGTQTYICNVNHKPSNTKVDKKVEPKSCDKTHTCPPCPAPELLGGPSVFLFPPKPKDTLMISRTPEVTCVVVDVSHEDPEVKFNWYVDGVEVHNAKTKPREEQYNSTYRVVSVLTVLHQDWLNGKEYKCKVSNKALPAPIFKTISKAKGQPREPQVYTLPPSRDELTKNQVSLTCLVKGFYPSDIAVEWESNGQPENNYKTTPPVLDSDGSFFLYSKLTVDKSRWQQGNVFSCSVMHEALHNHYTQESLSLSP
light: DIVMTQSPLSLPVTPGEPASISCQASESLVHSNRNTYLHWYLQKPGQSPQLLIYKVSNRFSGVPDRFSGSGSGTDFTLKISRVEAEDVGVYYCSQNTHVPPTFGQGTKVEIERTVAAPSVFIFPPSDEQLKSGTASVVCLLNNFYPREAKVQWKVDNALQSGNSQESVTEQDSKDSTYSLSSTLTLSKADYEKHKVYACEVTHQGLSSPVTKSFNRGEC
notes: also called Ho Ab E333_04F
B4: GpH7-B3 variant I332_01G/GpL16-k0 (antibody, human IgG1, kappa)
heavy: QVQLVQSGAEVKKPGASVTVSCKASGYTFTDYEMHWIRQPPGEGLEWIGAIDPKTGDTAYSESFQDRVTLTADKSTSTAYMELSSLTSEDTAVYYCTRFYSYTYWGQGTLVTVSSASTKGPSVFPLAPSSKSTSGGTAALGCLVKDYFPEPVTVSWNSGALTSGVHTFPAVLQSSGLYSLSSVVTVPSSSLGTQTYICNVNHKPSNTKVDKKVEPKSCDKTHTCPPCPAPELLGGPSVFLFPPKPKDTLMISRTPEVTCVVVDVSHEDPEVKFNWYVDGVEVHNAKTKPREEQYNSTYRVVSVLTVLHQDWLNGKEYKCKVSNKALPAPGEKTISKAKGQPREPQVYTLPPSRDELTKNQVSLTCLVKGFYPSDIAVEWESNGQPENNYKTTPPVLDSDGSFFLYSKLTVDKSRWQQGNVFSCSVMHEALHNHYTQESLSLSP
light: DIVMTQSPLSLPVTPGEPASISCQASESLVHSNRNTYLHWYLQKPGQSPQLLIYKVSNRFSGVPDRFSGSGSGTDFTLKISRVEAEDVGVYYCSQNTHVPPTFGQGTKVEIERTVAAPSVFIFPPSDEQLKSGTASVVCLLNNFYPREAKVQWKVDNALQSGNSQESVTEQDSKDSTYSLSSTLTLSKADYEKHKVYACEVTHQGLSSPVTKSFNRGEC
notes: also called Ho Ab I332_01G
B5: GpH7-A5/GpH7-B3 variant T335_13S/GpL16-k0 (antibody, human IgG1, kappa)
heavy 1: not shown
heavy 2: not shown
light: DIVMTQSPLSLPVTPGEPASISCQASESLVHSNRNTYLHWYLQKPGQSPQLLIYKVSNRFSGVPDRFSGSGSGTDFTLKISRVEAEDVGVYYCSQNTHVPPTFGQGTKVEIERTVAAPSVFIFPPSDEQLKSGTASVVCLLNNFYPREAKVQWKVDNALQSGNSQESVTEQDSKDSTYSLSSTLTLSKADYEKHKVYACEVTHQGLSSPVTKSFNRGEC
notes: heterodimerized antibody, mutation in one H chain only; also called T335_13S He Ab
B6: GpH7-A5/GpH7-B3 variant T335_02A/GpL16-k0 (antibody, human IgG1, kappa)
heavy 1: not shown
heavy 2: not shown
light: DIVMTQSPLSLPVTPGEPASISCQASESLVHSNRNTYLHWYLQKPGQSPQLLIYKVSNRFSGVPDRFSGSGSGTDFTLKISRVEAEDVGVYYCSQNTHVPPTFGQGTKVEIERTVAAPSVFIFPPSDEQLKSGTASVVCLLNNFYPREAKVQWKVDNALQSGNSQESVTEQDSKDSTYSLSSTLTLSKADYEKHKVYACEVTHQGLSSPVTKSFNRGEC
notes: heterodimerized antibody, mutation in one H chain only; also called T335_02A He Ab
B7: GpH7-A5/GpH7-B3 variant Y296_08L/GpL16-k0 (antibody, human IgG1, kappa)
heavy 1: not shown
heavy 2: not shown
light: DIVMTQSPLSLPVTPGEPASISCQASESLVHSNRNTYLHWYLQKPGQSPQLLIYKVSNRFSGVPDRFSGSGSGTDFTLKISRVEAEDVGVYYCSQNTHVPPTFGQGTKVEIERTVAAPSVFIFPPSDEQLKSGTASVVCLLNNFYPREAKVQWKVDNALQSGNSQESVTEQDSKDSTYSLSSTLTLSKADYEKHKVYACEVTHQGLSSPVTKSFNRGEC
notes: heterodimerized antibody, mutation in one H chain only; also called Y296_08L He Ab
B8: GpH7-A5/GpH7-B3 variant Y296_02A/GpL16-k0 (antibody, human IgG1, kappa)
heavy 1: not shown
heavy 2: not shown
light: DIVMTQSPLSLPVTPGEPASISCQASESLVHSNRNTYLHWYLQKPGQSPQLLIYKVSNRFSGVPDRFSGSGSGTDFTLKISRVEAEDVGVYYCSQNTHVPPTFGQGTKVEIERTVAAPSVFIFPPSDEQLKSGTASVVCLLNNFYPREAKVQWKVDNALQSGNSQESVTEQDSKDSTYSLSSTLTLSKADYEKHKVYACEVTHQGLSSPVTKSFNRGEC
notes: heterodimerized antibody, mutation in one H chain only; also called Y296_02A He Ab
B9: GpH7-A5/GpH7-B3 variant Y296_03V/GpL16-k0 (antibody, human IgG1, kappa)
heavy 1: not shown
heavy 2: not shown
light: DIVMTQSPLSLPVTPGEPASISCQASESLVHSNRNTYLHWYLQKPGQSPQLLIYKVSNRFSGVPDRFSGSGSGTDFTLKISRVEAEDVGVYYCSQNTHVPPTFGQGTKVEIERTVAAPSVFIFPPSDEQLKSGTASVVCLLNNFYPREAKVQWKVDNALQSGNSQESVTEQDSKDSTYSLSSTLTLSKADYEKHKVYACEVTHQGLSSPVTKSFNRGEC
notes: heterodimerized antibody, mutation in one H chain only; also called Y296_03V He Ab
B10: GpH7-B3 variant H268_02A/GpL16-k0 (antibody, human IgG1, kappa)
heavy: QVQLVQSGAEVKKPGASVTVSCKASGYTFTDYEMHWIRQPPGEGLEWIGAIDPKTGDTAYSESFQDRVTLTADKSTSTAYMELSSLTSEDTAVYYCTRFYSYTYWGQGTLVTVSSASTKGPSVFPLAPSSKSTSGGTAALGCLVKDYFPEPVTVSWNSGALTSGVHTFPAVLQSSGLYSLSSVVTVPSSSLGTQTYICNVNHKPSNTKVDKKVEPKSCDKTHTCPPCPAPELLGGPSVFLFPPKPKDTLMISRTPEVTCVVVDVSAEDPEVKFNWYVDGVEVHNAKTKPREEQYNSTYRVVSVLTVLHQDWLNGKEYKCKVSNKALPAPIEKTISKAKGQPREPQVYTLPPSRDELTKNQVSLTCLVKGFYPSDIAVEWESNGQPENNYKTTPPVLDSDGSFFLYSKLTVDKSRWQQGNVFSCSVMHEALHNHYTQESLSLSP
light: DIVMTQSPLSLPVTPGEPASISCQASESLVHSNRNTYLHWYLQKPGQSPQLLIYKVSNRFSGVPDRFSGSGSGTDFTLKISRVEAEDVGVYYCSQNTHVPPTFGQGTKVEIERTVAAPSVFIFPPSDEQLKSGTASVVCLLNNFYPREAKVQWKVDNALQSGNSQESVTEQDSKDSTYSLSSTLTLSKADYEKHKVYACEVTHQGLSSPVTKSFNRGEC
notes: also called Ho Ab H268_02A
B11: GpH7-B3 variant A330_05P/GpL16-k0 (antibody, human IgG1, kappa)
heavy: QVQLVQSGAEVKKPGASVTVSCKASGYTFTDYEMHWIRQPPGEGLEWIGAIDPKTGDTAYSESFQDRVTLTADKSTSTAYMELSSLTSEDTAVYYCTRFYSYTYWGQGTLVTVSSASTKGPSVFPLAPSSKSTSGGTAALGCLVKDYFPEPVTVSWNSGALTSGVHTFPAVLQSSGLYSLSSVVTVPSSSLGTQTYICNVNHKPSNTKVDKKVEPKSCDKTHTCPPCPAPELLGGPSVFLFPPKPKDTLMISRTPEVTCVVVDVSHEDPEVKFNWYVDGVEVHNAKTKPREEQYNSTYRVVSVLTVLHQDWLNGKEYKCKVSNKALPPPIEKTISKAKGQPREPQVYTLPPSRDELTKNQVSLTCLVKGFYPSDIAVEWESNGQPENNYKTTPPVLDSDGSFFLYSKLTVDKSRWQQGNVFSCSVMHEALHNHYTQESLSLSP
light: DIVMTQSPLSLPVTPGEPASISCQASESLVHSNRNTYLHWYLQKPGQSPQLLIYKVSNRFSGVPDRFSGSGSGTDFTLKISRVEAEDVGVYYCSQNTHVPPTFGQGTKVEIERTVAAPSVFIFPPSDEQLKSGTASVVCLLNNFYPREAKVQWKVDNALQSGNSQESVTEQDSKDSTYSLSSTLTLSKADYEKHKVYACEVTHQGLSSPVTKSFNRGEC
notes: also called Ho Ab A330_05P

Assays:
[1] = target: T1, FcγRIIIa extracellular domain with C-terminal His tag (human, UniProt P08637 17-208); experiment: SPR relative binding; GpH7-B3/GpL16-k0 = 100
T1 construct: extracellular domain; also called FcgRIIIa; 3a; not shown: His tag at the C terminus
Protocol: Analysis of interaction between objective antibody and the FcγR was carried out using Biacore T100 (GE Healthcare). HBS-EP+ (GE Healthcare) was used as the running buffer, and the measurement temperature was set to 25° C. Chips produced by immobilizing the antigen peptide by the amine coupling method to a Series S Sencor Chip CM5 (GE Healthcare), or alternatively, chips produced by allowing preliminarily biotinylated antigen peptides to interact with and immobilize onto a Series S Sensor Chip SA (certified) (GE Healthcare) were used. Antibodies of interest were captured onto an antigen peptide-immobilized chip, and allowed to interact to each FcγR diluted with running buffer. To regenerate and repeatedly use the chip, the antibodies captured on the chip were washed off by reacting 10 mM glycine-HCl, pH 1.5.
The FcγR-binding activity of each antibody was assessed primarily using as an indicator the FcγR-binding activity and dissociation constant for FcγR.

[2] = target: T2, FcγRIa extracellular domain with C-terminal His tag (human, UniProt P12314 16-292); experiment: SPR (Biacore), relative FcγRIa binding, GpH7-A5/GpH7-B3/GpL16-k0 (HeCon Ab) = 100
T2 construct: extracellular domain; soluble analyte in Biacore; also called FcgRI; CD64
T2 sequence (P12314 16-292): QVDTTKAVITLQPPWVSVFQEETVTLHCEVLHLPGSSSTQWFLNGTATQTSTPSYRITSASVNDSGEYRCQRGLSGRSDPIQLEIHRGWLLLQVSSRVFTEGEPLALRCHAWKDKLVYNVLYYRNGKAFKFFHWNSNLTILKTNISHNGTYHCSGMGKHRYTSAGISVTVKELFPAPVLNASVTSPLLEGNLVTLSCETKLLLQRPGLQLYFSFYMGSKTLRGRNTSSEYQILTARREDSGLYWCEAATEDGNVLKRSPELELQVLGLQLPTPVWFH

T1 sequence (P08637 17-208): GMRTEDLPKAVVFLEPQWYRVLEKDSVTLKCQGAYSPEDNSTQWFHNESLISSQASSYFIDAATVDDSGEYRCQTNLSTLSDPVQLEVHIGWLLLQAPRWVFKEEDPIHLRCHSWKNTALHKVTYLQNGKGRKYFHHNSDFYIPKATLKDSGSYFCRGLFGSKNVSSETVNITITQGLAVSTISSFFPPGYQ

Binder | Ho/Con_3a [1] | He/Con_1a [2]
B1 | 90.3 % of control | 
B2 | 41.6 % of control | 
B3 | 87.1 % of control | 
B4 | 104 % of control | 
B5 |  | 105 % of control
B6 |  | 103 % of control
B7 |  | 104 % of control
B8 |  | 103 % of control
B9 |  | 104 % of control
B10 | 118 % of control | 
B11 | 56.6 % of control | 
